{
  "source": "patent US20090280543A1",
  "about": "“REGIOSELECTIVE GLYCOSYLATION” (THE UNIVERSITY OF YORK, priority 2005, published 2009)",
  "data": [
    {"assay": "Whole-cell biocatalysis screen of GT library against the aglycone trans-resveratrol (RP-HPLC of glucosides)", "format": "cell-based, E. coli", "conditions": "500 µM aglycone, 44 h, 25° C.", "excerpt": "FIG. 4: Screening of a GT-library against the aglycone trans-resveratrol. a) The readings at A405 nm for D-glucose detection are presented in a colored code format. b) Examples of RP HPLC trace of active and non active GTs in whole cell biocatalysis are illustrated. c) The regioselectivity of the active GTs towards trans-resveratrol, defined by the percentage of a regiospecific glucoside in the total amount of monoglucosides formed;\n(§1) Reverse-phase HPLC (RP-HPLC): RP-HPLC (Agilent 1100 system with Photodiode Array Detector, Agilent, U.K.) analysis was carried out using a Columbus 5-μ C18 column (150×3.20 mm, Phenomenex, U.K.). Glucosides were separated from their respective aglycones using a linear gradient of acetonitrile/0.1% formic acid (v/v) in H2O: 10-45% (trans-resveratrol/glucosides), 10-50% (daidzein/glucosides) at 0.5 mL/min over 20 min and monitored at 280 nm and 250 nm. Separation of scopoletin/scopolin and esculetin/esculin was carried out using the conditions described previously.^[11]\nThe cDNA library of 96 Arabidopsis thaliana GTs was subcloned into the multiple cloning site of the glutathione-S-transferase (GST) gene fusion vector pGEX-2T (Amersham Biosciences, U.K.) as described previously^[10] and transformed into the strain E. coli BL21 (DE3) for use in the screening method.\nStage 1, biotransformation: single colonies of the GT library grown on LB-agar plates overnight were transferred to individual wells in a 96-well bacterial culture plate containing 400 μl 2×YT medium (16 g/L bacto tryptone, 10 g/L yeast extract, 5 g/L NaCl) and 50 μg/mL ampicillin. The plate was covered with an adhesive plate seal (Abgene, U.K.) and incubated at 37° C. (250 rpm). The bacterial growth was monitored at 595 nm by a plate reader. After 4 h, the cultures had reached exponential phase. The plate was centrifuged (4000 g, 10 min), the supernatants discarded and cell pellets were resuspended in isopropyl-D-thiogalactopyranoside (0.1 mM), 2-(N-morpholino)ethanesulfonic acid (50 mM, pH 7.0), ampicillin (50 μg/mL), L-arabinose (10 g/L) and 500 µM of aglycone to a total whole-cell reaction volume of 400 μl/well. The 96-well plate was closed with a gas permeable adhesive plate seal, wrapped in alu foil for light protection and incubated at 25° C. (250 rpm). After 44 h the cultures were centrifuged (4000 g, 15 min) and the supernatants analyzed.\nStage 2, cleavage: supernatants (100 μl) were transferred to a microtiter plate, 1 μl of β-glucosidase (1 U) was added and the plate incubated for 90 min at 37° C.\n(§2) Stage 3, detection: 50 μl of the reaction mix were transferred to a 96-well filtration plate (Abgene, U.K.), mixed with an equal volume of PVPP aqueous suspension (25 g/L), shaken for 1 h at 25° C. before centrifugation (1000 g, 5 min). To each filtrate, 50 mM 2-morpholino-ethanesulfonic acid buffer (MES) (pH 7.0), ABTS™ (0.1 mM), peroxidase (2 U) and glucose oxidase (2 U) were added to a final volume of 125 μl. The formation of the green dye was monitored at 405 nm at 30 min using a plate reader (Bio-Tec Instruments Inc., U.S.A).\nThe utility of the screening method and regioselective biocatalysis by the GTs are illustrated in FIGS. 2 and 3. Thirteen GTs recognized daidzein and twenty-five GTs were identified that glycosylated trans-resveratrol. […] The mono- and di-glucosides of daidzein (4-6) and trans-resveratrol (8-10), eluting earlier than the two aglycones under the RP-HPLC conditions used (FIGS. 2b and 3b), were identified using external standards when available, or by electrospray liquid chromatography-mass spectrometry (LC-MS). ^1H-NMR analysis was used to confirm the structure of the monoglucosides (Table 1, SEQ ID NO: 1-107). […] Similarly, regioselective glycosylation of trans-resveratrol was observed. […] Only trace levels of a diglucoside were observed under the reaction conditions used.", "values": [
      {"molecule": "GT 71C2: Arabidopsis thaliana glycosyltransferase, SEQ ID NO: 8 (nucleotide), 109 (amino acid) (protein, listed as Arabidopsis thaliana) MAKQQEAELIFIPFPIPGHILATIELAKRLISHQPSRIHTITILHWSLPFLPQSDTIAFLKSLIETESRIRLITLPDVQNPPPMELFVKASESYILEYVKKMVPLVRNALSTLLSSRDESDSVHVAGLVLDFFCVPLIDVGNEFNLPSYIFLTCSASFLGMMKYLLERNRETKPELNRSSDEETISVPGFVNSVPVKVLPPGLFTTESYEAWVEMAERFPEAKGILVNSFESLERNAFDYFDRRPDNYPPVYPIGPILCSNDRPNLDLSERDRILKWLDDQPESSVVFLCFGSLKSLAASQIKEIAQALELVGIRFLWSIRTDPKEYASPNEILPDGFMNRVMGLGLVCGWAPQVEILAHKAIGGFVSHCGWNSILESLRFGVPIATWPMYAEQQLNAFTIVKELGLALEMRLDYVSEYGEIVKADEIAGAVRSLMDGEDVPRRKLKEIAEAGKEAVMDGGSSFVAVKRFIDGL", "regioselective glycosylation of trans-resveratrol (position)": "specific for the 3-OH position"},
      {"molecule": "GT 74B1: Arabidopsis thaliana glycosyltransferase, SEQ ID NO: 35 (nucleotide), 124 (amino acid) (protein, listed as Arabidopsis thaliana) MAETTPKVKGHVVILPYPVQGHLNPMVQFAKRLVSKNVKVTIATTTYTASSITTPSLSVEPISDGFDFIPIGIPGFSVDTYSESFKLNGSETLTLLIEKFKSTDSPIDCLIYDSFLPWGLEVARSMELSAASFFTNNLTVCSVLRKFSNGDFPLPADPNSAPFRIRGLPSLSYDELPSFVGRHWLTHPEHGRVLLNQFPNHENADWLFVNGFEGLEETQDCENGESDAMKATLIGPMIPSAYLDDRMEDDKDYGASLLKPISKECMEWLETKQAQSVAFVSFGSFGILFEKQLAEVAIALQESDLNFLWVIKEAHIAKLPEGFVESTKDRALLVSWCNQLEVLAHESIGCFLTHCGWNSTLEGLSLGVPMVGVPQWSDQMNDAKFVEEVWKVGYRAKEEAGEVIVKSEELVRCLKGVMEGESSVKIRESSKKWKDLAVKAMSEGGSSDRSINEFIESLGK", "regioselective glycosylation of trans-resveratrol (position)": "specific for the 4′-OH position"},
      {"molecule": "GT 71C4: Arabidopsis thaliana glycosyltransferase, SEQ ID NO: 10 (nucleotide), 110 (amino acid) (protein, listed as Arabidopsis thaliana) MVKETELIFIPVPSTGHILVHIEFAKRLINLDHRIHTITILNLSSPSSPHASVFARSLIASQPKIRLHDLPPIQDPPPFDLYQRAPEAYIVKLIKKNTPLIKDAVSSIVASRRGGSDSVQVAGLVLDLFCNSLVKDVGNELNLPSYIYLTCNARYLGMMKYIPDRHRKIASEFDLSSGDEELPVPGFINAIPTKFMPPGLFNKEAYEAYVELAPRFADAKGILVNSFTELEPHPFDYFSHLEKFPPVYPVGPILSLKDRASPNEEAVDRDQIVGWLDDQPESSVVFLCFGSRGSVDEPQVKEIARALELVGCRFLWSIRTSGDVETNPNDVLPEGFMGRVAGRGLVCGWAPQVEVLAHKAIGGFVSHCGWNSTLESLWFGVPVATWPMYAEQQLNAFTLVKELGLAVDLRMDYVSSRGGLVTCDEIARAVRSLMDGGDEKRKKVKEMADAARKALMDGGSSSLATARFIAELFEDGSSC", "regioselective glycosylation of trans-resveratrol (position)": "specific for the 3-OH position"},
      {"molecule": "GT 72D1: Arabidopsis thaliana glycosyltransferase, SEQ ID NO: 18 (nucleotide), 113 (amino acid) (protein, listed as Arabidopsis thaliana) MDQPHALLVASPGLGHLIPILELGNRLSSVLNIHVTILAVTSGSSSPTETEAIHAAAARTICQITEIPSVDVDNLVEPDATIFTKMVVKMRAMKPAVRDAVKLMKRKPTVMIVDFLGTELMSVADDVGMTAKYVYVPTHAWFLAVMVYLPVLDTVVEGEYVDIKEPLKIPGCKPVGPKELMETMLDRSGQQYKECVRAGLEVPMSDGVLVNTWEELQGNTLAALREDEELSRVMKVPVYPIGPIVRTNQHVDKPNSIFEWLDEQRERSVVFVCLGSGGTLTFEQTVELALGLELSGQRFVWVLRRPASYLGAISSDDEQVSASLPEGFLDRTRGVGIVVTQWAPQVEILSHRSIGGFLSHCGWSSALESLTKGVPIIAWPLYAEQWMNATLLTEEIGVAVRTSELPSERVIGREEVASLVRKIMAEEDEEGQKIRAKAEEVRVSSERAWSKDGSSYNSLFEWAKRCYLVP", "regioselective glycosylation of trans-resveratrol (position)": "specific for the 3-OH position"},
      {"molecule": "GT 71 D1: Arabidopsis thaliana glycosyltransferase, SEQ ID NO: 12 (nucleotide), 111 (amino acid) (protein, listed as Arabidopsis thaliana) MRNVELIFIPTPTVGHLVPFLEFARRLIEQDDRIRITILLMKLQGQSHLDTYVKSIASSQPFVRFIDVPELEEKPTLGSTQSVEAYVYDVIERNIPLVRNIVMDILTSLALDGVKVKGLVVDFFCLPMIDVAKDISLPFYVFLTTNSGFLAMMQYLADRHSRDTSVFVRNSEEMLSIPGFVNPVPANVLPSALFVEDGYDAYVKLAILFTKANGILVNSSFDIEPYSVNHFLQEQNYPSVYAVGPIFDLKAQPHPEQDLTRRDELMKWLDDQPEASVVFLCFGSMARLRGSLVKEIAHGLELCQYRFLWSLRKEEVTKDDLPEGFLDRVDGRGMICGWSPQVEILAHKAVGGFVSHCGWNSIVESLWFGVPIVTWPMYAEQQLNAFLMVKELKLAVELKLDYRVHSDEIVNANEIETAIRYVMDTDNNVVRKRVMDISQMIQRATKNGGSSFAAIEKFIYDVIGIKP", "regioselective glycosylation of trans-resveratrol (position)": "specific for the 3-OH position"},
      {"molecule": "GT 88A1: Arabidopsis thaliana glycosyltransferase, SEQ ID NO: 97 (nucleotide), 133 (amino acid) (protein, listed as Arabidopsis thaliana) MGEEAIVLYPAPPIGHLVSMVELGKTILSKNPSLSIHIILVPPPYQPESTATYISSVSSSFPSITFHHLPAVTPYSSSSTSRHHHESLLLEILCFSNPSVHRTLFSLSRNFNVRAMIIDFFCTAVLDITADFTFPVYFFYTSGAACLAFSFYLPTIDETTPGKNLKDIPTVHIPGVPPMKGSDMPKAVLERDDEVYDVFIMFGKQLSKSSGIIINTFDALENRAIKAITEELCFRNIYPIGPLIVNGRIEDRNDNKAVSCLNWLDSQPEKSVVFLCFGSLGLFSKEQVIEIAVGLEKSGQRFLWVVRNPPELEKTELDLKSLLPEGFLSRTEDKGMVVKSWAPQVPVLNHKAVGGFVTHCGWNSILEAVCAGVPMVAWPLYAEQRFNRVMIVDEIKIAISMNESETGFVSSTEVEKRVQEIIGECPVRERTMAMKNAAELALTETGSSHTALTTLLQSWSPK", "regioselective glycosylation of trans-resveratrol (position)": "specific for the 3-OH position"}
    ]},
    {"assay": "Removal of aglycones through adsorption by PVPP, analysed by RP-HPLC", "format": "physicochemical", "conditions": "ratio of compounds removed by PVPP over that in the untreated samples", "protocol": "FIG. 7: Removal of different aglycones through adsorbtion by PVPP. The removal of a) trans-resveratrol (100%), b) esculetin (70%), c) daidzein (81%), and d) scopoletin (92%) by PVPP was analyzed by RP-HPLC. The efficiency was defined as the ratio of compounds removed by PVPP over that in the untreated samples;\nas §1, §2", "units": {"removal by PVPP (efficiency)": "%"}, "values": [
      {"molecule": "COc1cc2ccc(=O)oc2cc1O", "note": "[scopoletin]", "removal by PVPP (efficiency)": 92},
      {"molecule": "Oc1ccc(/C=C/c2cc(O)cc(O)c2)cc1", "note": "[trans-resveratrol]", "removal by PVPP (efficiency)": 100},
      {"molecule": "O=c1ccc2cc(O)c(O)cc2o1", "note": "[esculetin]", "removal by PVPP (efficiency)": 70},
      {"molecule": "O=c1c(-c2ccc(O)cc2)coc2cc(O)ccc12", "note": "[daidzein]", "removal by PVPP (efficiency)": 81}
    ]}
  ]
}
